# Test results as given in the nanobody polyreactivity screen of Harvey et al. (2022).
# Assay: yeast display, Sf9 membrane polyspecificity reagent, FACS + sequencing; frameworks hold sequencing errors
# Method in brief: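 After 36–48 hours of galactose induction, yeast (Saccharomyces cerevisiae BJ5465) displaying a synthetic nanobody library were stained at 4 °C for 1 hour with 10% biotinylated, detergent-solubilized Sf9 membrane reagent. Streptavidin microbeads enriched the stained cells before FACS sorting into low and high (top ~1%) gates on anti-HA and streptavidin fluorescence. Each clone's polyreactivity label reflects its gate of origin.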
row,Sequence,polyreactivity (PSR sort gate)
1,QVHLVESGGGLVQAGGSLRLSCAASGRTFSTYAMGWYRQAPGTERELVAAISSGGGRTYYADSVKGRFTISRDNAKNTVYLQMNRLKPEDTAVYYCAADRYFRSSRSYEYWGQGTLVTVSS,low polyreactivity
2,PVQLVESGGGLVQAGGRLRLSCAASGIIFSDYAMGWYRQAPGKERELVAAIPGGGSTYYADSVKGRFTISRDNAKNTVYLQMNSLKPEDTAVYYCNADWARLWIRSTEVDYWGQGTQVTVSS,low polyreactivity
3,QVQLVESGGGLVQAGGSLRLSCAASGFTFNNYAMGWYRQAPGKERELVAAISSGAGTYYADSVKGRFTISRDNAKNTVYLQMNSLNPVDTSVDYCNASLKYQGRTRITYRDDYWGQGTQVTVSS,low polyreactivity
4,QVQLVESGGGLVKAGGSLRLSCAASGSTFHIYAMGWYRQAPGKERELVAAISKGGGNTYYADSVKGRFTISRDNAKNTVYLQMNSLKPEDTAVYYCAAVPTRYRSYTYTYGGYNYWGQGTQVTVSS,high polyreactivity
5,QVQLGESGGGLVQAGGSLRLSCAASGFIFGYYAMGWYRQAPGKERELVAAINYNDDSTYYADSVKGRFTISRDNAKNTVYLQMNSLKPEDTAVYYCAAGVWYGYYVSIYLDYDYWGQGTQVTLSS,low polyreactivity
6,QVQLVESGVGLVKAGGILRLSCAASGSIFLRYAMGWYRQAPGKERELVATISKSGGSTYYADSVKGRFTISRDNAKNTVYLQMNSLNPEDTAVYYCAAGYVYFQTYYYWGQGTQVTVSS,high polyreactivity
7,QVQLVESGGGLVQAGGSLRLSCAASGFIFGRYTMGWYRQATGKERELVAAISGSDVTTYYADSVKGRFTISRDNAKNTVYLQMNSLKPEDTAVYYCAADSPWAYYEYDYWGQGTHVTVSS,low polyreactivity
8,QVQLVESGGGLVQAGGSLRLSCAASGSIFISYAMGWYRQAPGKERELVAAISSGGSTNYADSVKGRFTISRDNAKNTVYLQMNSLKPEDTAVYYCAADGWLWSFTGDGWWFVYWGQGTQVTVSS,low polyreactivity
9,QFQLVESGGGVVQAGGSLRLSCAASGSIIYVNAMGWYRQAPGKERELVAAINYSGDSTYYADSVKGRFTISRDNAKNTVYLQMNSLKPEDTAVYYCAADIYVYYAPVYQYYWYDSWGQGTQVTVSS,high polyreactivity
10,QVQLVESGGGLVQAGGSLRLSCAASGSIFWNNAMGWSRQAPGKERELVAAISKSGTRTYYADSVKGRFTISRDNAKNTVYLQMNSLKPEDTAVYYCNALLRDSGTYAGDDYWGQGTQVTVSS,high polyreactivity
11,QVQLVESGRGLVQAGGSLRLSCAASGLTFRVYAMGWYRQAPGKERELVAAITGGGGSTYADSVKGRFTISRDNAKNTVYLQMNSLKPQDTAVYYCNKKGYYYKFDYWGQGTQVTVSS,low polyreactivity
12,QVQLVESGGGLVQAGGSLRLSCAASGRIFRWYAMGWYRQAPGKERELVATISSTGGSTYYADSVKGRFTLSRDNAKNTVYLQMNSLKPEDTAVYYCNAVVYGIFLYAWYDYWGQGTQVTVSS,low polyreactivity
13,QVQLVESGGGLVQAGGSLRLSCAASGIIFYYNAMGWYRQAPGKERELVASIRWRGGSTYYADSVKGRFTISRDNAKNTVYLQMNSLKPEDTAVYYCNVVKYVYIYSYWEYYYWGQGTQVTVSS,low polyreactivity
14,QVQLVESGGGIVQAGGSLRLSCAASGIIFRYYAMGWYRQAPGNERELVAVITGRGGGTYYADSVKGRFTISRDNAKNTVYLQMNSLKPEDTAVYYCAKDFTGHYPKGFDYWGQGTQLTVSS,low polyreactivity
15,QVQLVESGGGLVQAGGSLRLSCAASGRIFSNNAMGWYRQAPGKERELVAAISSSGSTYYADSVKGRFTISRDNAKNTVYLQINSLKPEDTAVYYCAVVYGYPYLRGYVFGFNYWGQGTQVTVSS,low polyreactivity
16,QVQLEESRGGLVQAGGSLRLSCAASGYTLYEYAMGWYRQAPGKERELDAAITRSGGSTYYADSVKGRFTISRDNAKNTVYLQMNSLKPEDTAVFYCNADIYSRHTVGGYYYWGQGTQVTVSS,high polyreactivity
17,QDQLVESGGGLVQAGGSLRLSCAASGRIFSKYAKGWYRQAPGKERELVAAITTGGGSTSYADSVKGRFTISRDNAKITVYLQMNSLKPEDTAVYYCAADRLSYGFGMYYWGQGTQVTVSS,low polyreactivity
18,QVQLVESGGGLVQSGGSLRLSCAASGFTFASYAMGWYRQAPGKERELVAAIDSDDSTNYADSVKGRFTISRDNAKNTVYLQMNSLKPEDTAVYYCAADEGPYYGIYEYYYWGQGTQVTVSS,high polyreactivity
19,QDQLVESGGGLVQAGGSLRLSCDASGRIFWVYVMGWYRQAPGKERELVADITSIGGSTYYADSVKGRFTISRDNAKNTVYLQMNSLKPEDTAVYSCAADVDGYPYYQYKMGYWGQGTQVTVSS,low polyreactivity
20,QVQLVESGGGLVQAGGSLRLSCAASGSIFGKYAMGWYRQAPGKERELVAAISERTGRTYYADSVKGRFTISRDNAKNTVYLQMNSLKPEDTAVYYCNVVPLDSGWSTYGYDYWGQGTQVTVSS,high polyreactivity
21,QVQLEESGGGLVQAGGSLRLSCAASGSILLGYDMGWYRTAPGKERELVASIDTNGGSPYYADSVKGRFTISRDNAKNTVYLQSNSLKPEDTAVYYCNADPSFVGGTYDYWGQGTQVTVSS,low polyreactivity
22,QVQLVESGGGLVQAGGSLRLSCAASGIIFGYYAMGWYRQAPGKERELVAAISWSGVSTYYADSVKGRFTISRDNAKNTVYLQMHSLKPEDTAVYYCAVGYVLTGVFQARFDYWGQGTQVTVSS,high polyreactivity

row,Sequence,polyreactivity (PSR sort gate)
1,QGQRVESGGGLVQAGGSLRLSCAASGSIFTYAMGGSRQAPGNERELGAAISRSGGRTYYADSGKGRFTISRDNAKNTVSLHMNSLKPEDTAVYYCAALLLKDYDYWGPGTQVTVSS,low polyreactivity
2,QVQLVESGGGLVQAGGSLRLSCAASGSTFFLYVRGWYRQAPGKERELVAAITSGGRTYYADSVKGRFTISRDNAKNTVYLQMNSLKPEDTAVYNCAADVRRVRVGKYDYWGQGTQVTVSS,high polyreactivity
3,QVQLVESGGGLVQAGGSLRLSCASSGGIFASNVMGWYRQAPGKERELVAAISSITGSTYYADSVKGRFTISRDNAKNTVYLQMNSLKPEDTAVYYCAAYVQFAKIRFDYWGQGTQVTVSS,high polyreactivity
4,QVQLVESGGGLVQAGGSLRLSCAASGFTFHWYAMGWYRQAPGKERELVAAITDTGGSTYYADSVKGRFTISRDNAKNTVYLQMNSLKPEDTAVYYCATRHSKYGYEYDYWGQGTQVTVSS,low polyreactivity
5,QVQLEESGGGLVQAGGSLRLSCAPSGYNYRKNVIGWYRQAPGKERELVAAISARGGSTYYADSVKGRFTISRDNAKNTVYLQMYSLKAEVTAVYFCNTDGYLYPYDSWGLGTQVTVSS,high polyreactivity
6,QVQLVESGGGLVQAGGSLRLSCAASGRIFYRYAMGWYRQAPGKERELVAAITYSGGSTYYADSVKGRFTISRDNAKNTVYLQMNSLKPEDTAVYYCAAGGRGRPTTPPYGWYKLNYWGQGTQVTVSS,high polyreactivity
7,QVQLVESGGGLVQAGGSLRLSCAASGRIFTSYAKGWYRQAPGKERELVAAISRSGGSTYYADSVKGRFTISRDNAKNTVYLQMHSLKPEDTALYYCAKARVVAGYDYWGQGTQVTVSS,high polyreactivity
8,QLQLVESGGGLVQAGGSLRLSCAASGSTFALYAMGWYRQAPGKERELVAAITSDGSTKYADSVKGRFTISRDNAKNTVYLQMNSLKPEDTAVYYCNTEYYYPGIPYDYWGQGTQVTVSS,high polyreactivity
9,QVQLVESGGGLVQAGGSLRLSCAASGFILLDNAMGRYRQAPVKEREFVASINISGDRTFYADSVKGRFTISRDNAKNTVYLQMNSLKPEDTAVYYCAKEPGLGRRSTTAYDYWGQGTQVTVSS,low polyreactivity
10,QVQLVESGGGLVQAGGSLRVSCAASGYTFDLYAMGWYRQAPGKERELVADISSGGSTNYADSVKGRFTISRDNAKNTVYLQMNSLKPEDTAVYYCAVDADRTLFGQYYVSEYGGGYWGQGTQVTVSS,low polyreactivity
11,QVQLVESGGGLVQAGGSLRLSCAASGITFFRNAMGWYRQAPGKERELVAVITYSGGRTSYADSVKGRFTISRDNAKNTVYLQMNSLKPEDTAVYYCATEKWQSSPGYTYYFVEYDYWGQGTQVTVSS,low polyreactivity
12,QVQLVESGGGLVQAGGSLRLSCAASGSILTFYAMGWYRQAPGKERELVAAITWRGGSTYYAYSVKGRFTISRDNAKNTVYLQMNSLKPEDTAVYYCAAEQVGYYLNWRDYWGQGTQVTVSS,high polyreactivity
13,QVQLVESGGGLDQAGGSLRLSCAASGRIFSYYTMGWYRQAPGKERELVAAITWGGGSTSYADSVKGRFTISRDNAKNTVYLQMNSLKPEDTAVYYCAESPGANRMDYWGQGTQVTVSS,low polyreactivity
14,QVQLVESGGGLVQAGGSLRLSCAASGFIFWLYPMGWYRQAPGKERELVAAISSSGGNTYYADSVKGRFTISRDNAKNTVDLQMISLKPEDTAVYYCAASYSYGRTYSGYYWGQGTQVTVSS,low polyreactivity
15,QDQLVESCGCLVQAGGSLRLSCASSGSTFGTYAMGWYRQAPGKERELVAAISSGDSTTYADSVKGRFTISRDNAKNTVYFQRNSLKQVDTAVYYCAARTFLMRNGGYNYWGEGTQVTVSS,low polyreactivity
16,QVQLVESGGGLVQAGGSLRLSCAASGRTFGRNDMGWYRQAPGKERELLATITSGGSTNYADSVKGRFTISRDNAKNTVYLQMISLKPEDTAVYYCAAEFSPSRWAYSEGALRYNYWGQGTQVTVSS,low polyreactivity
17,QVQLVESGGGLVQAGGSLRLSCAASGIIFISNAMGWSRQAPGTERELVADITSGGGSTYYADSVKGRFTISRDNAKNTVDLQMNSLKPDDTAVYYGAKRATGAYVFFFDSWGQGTQVTVSS,low polyreactivity
18,QVHLVESGGGLVQAGGSLRLSCSAYGSIFAYYAMGWYRQAPGKERELVAAIRSSGGSTYYADSVKGRFTISRDNANNTVYLQMNSLKPEVTAVYYCNVASRRIGPYVYWGQGTQVTVSS,high polyreactivity
19,QVQLVESGGGLVQAGGSLRLSCAASGSTFWRYAMGWYRQAPGKERELVAAITRRGSSTYYADSVKGRFTISRDNAKNTVVLQMNSLKPEDTAVYYCAAPGYVRTGVTYGGYYWGQGTQVTVSS,high polyreactivity
20,QVHLVESGGGLVQAGGSLRLSCAASGFTFPLYARGLYRQAPGKERELVAVINSDGGRTYYADSVKGRFTISRDNAKYTVYLQMNSLKPEDTAVYYCATRATWYYWGQGTQVTVSS,high polyreactivity
21,QVQLVESGGGLVQAGGSLRLSCAASGRIFDVNAMGWYRQAPGKERELVAAIRSGGRTNYADSVKGRFTISRDNAKNTVYLQMNSLKPEDTAVYYCAAVVWSSLDDYWGLGTQVTVSS,high polyreactivity
